The EC50 is the concentration that produces a half-maximal response. Higher therefore signals lower potency in that assay.

For 29 molecules, EC50 results are on record in patent US20260365734 (published 2026).

The target in assay [1] is T1, human PD-L1 (cell surface) (human, UniProt Q9NZQ7). Description: FACS, NCI-H441 cells. (In flow cytometry, cells or beads pass a laser one at a time.)
The target in assay [2] is T1, human PD-L1 (cell surface). Nature of the assay: FACS, CHO-h-PD-L1 cells.
Assay [3] addresses T2, mouse PD-L1 (cell surface) (mouse, UniProt Q9EP73). Description: FACS, Hepa1-6 cells.
Assay [4] deals with T2, mouse PD-L1 (cell surface). Nature of the assay: FACS, 293T m-PD-L1 cells.
Assay [5] concerns the target T1, human PD-L1 (cell surface). Description: FACS.
Assay [6] has as its target T1, human PD-L1 (cell surface). Nature of the assay: FACS. The source holds these as a separate data set.

T1 sequence (Q9NZQ7 19-238): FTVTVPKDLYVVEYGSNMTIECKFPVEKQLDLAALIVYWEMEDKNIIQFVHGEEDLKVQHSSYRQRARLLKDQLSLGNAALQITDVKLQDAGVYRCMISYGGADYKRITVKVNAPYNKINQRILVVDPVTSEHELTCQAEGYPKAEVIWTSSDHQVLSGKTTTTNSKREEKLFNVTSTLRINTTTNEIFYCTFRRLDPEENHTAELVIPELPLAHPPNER
T2 sequence (Q9EP73 19-238): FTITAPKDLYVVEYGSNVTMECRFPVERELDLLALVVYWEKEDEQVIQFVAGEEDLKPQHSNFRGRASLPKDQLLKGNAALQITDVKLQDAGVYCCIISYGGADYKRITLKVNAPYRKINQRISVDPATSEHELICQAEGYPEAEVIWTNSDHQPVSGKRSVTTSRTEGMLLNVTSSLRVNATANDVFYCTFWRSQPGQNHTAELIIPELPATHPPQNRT

B1: 4E2-Alpaca-NT (antibody, V domains shown)
VH: EVQLVESGGGSVQDGGSLTLSCAASGFSAGDVVMAWYRQAPGKQREFVANIAASSTTRYTDSVKGRFTISRDNAKNTVYLQMNSLKSEDTAVYYCNALVWTGSSYNNWGQGTQVTVSS
Regarding B1, the EC50 in assay [1] was 0.041 nM; in assay [2] it was 0.109 nM.

B2: 4D2-Alpaca-NT (antibody, V domains shown)
VH: QVQLVESGGGLVQAGGSLRLSCAASGFSASDVVMAWYRQAPGKQREFVANLGASSTTRYADSVKGRFTISRDDAKNTVSLQMNSLKSEDTAVYYCNALVWTGSSYNNWGQGTQVTVSS
In the case of B2, the EC50 in assay [1] was found to be 0.044 nM; in assay [2], 0.103 nM.

B3: 3H1-hv7 (antibody, V domains shown)
VH: QVQLVESGGGVVQPGGSLRLSCAASGIDFSDTHMHWVRQAPGKQRELVAIITSGGSTDYVDSVKGRFTISRDNSKNTLYLQMNSLRAEDTAVYYCNARRSTIYWGQGTQVTVSS
As to B3, the EC50 in assay [3] stood at 6.78 nM; in assay [4], 0.56 nM.

B4: 3H1-1G9 (antibody, V domains shown)
VH: QVQLVESGGGVVQPGGSLRLSCAASGIDFDDTHMHWVRQAPGKQRELVAIITSGGLTDYVDSVKGRFTISRDNSKNTLYLQMNSLRAEDTAVYYCNARTSTIYWGQGTQVTVSS
On to B4, for which the EC50 worked out at 0.55 nM in assay [3] and 1.01 nM in assay [4].

B5: 5F8-7D5 (antibody, V domains shown)
VH: EVQLVESGGGLVQPGGSLRLSCAASGFDFEDTHMSWVRQAPGKERELVAIITSGCSTDYVDSVKGRFTISRDNSKNTLYLQMNSLRAEDTAVYYCNARRATIYWGQGTQVTVSS
B5: in assay [5], the midpoint of the response, the EC50, lay at 0.51 nM.

B6: 5F8-8D4 (antibody, V domains shown)
VH: EVQLVESGGGLVQPGGSLRLSCAASGFDFSDTFMSWVRQAPGKERELVAIITSGGSTDYVDSVKGRFTISRDNSKNTLYLQMNSLRAEDTAVYYCNARRTTIYWGQGTQVTVSS
B6 returned an EC50 in assay [5] of 0.49 nM.

B7: 5F8-8H3 (antibody, V domains shown)
VH: EVQLVESGGGLVQPGGSLRLSCAASGFDFSMTHMSWVRQAPGKERELVAIITSGGKTDYVDSVKGRFTISRDNSKNTLYLQMNSLRAEDTAVYYCNARRATIYWGQGTQVTVSS
B7 displayed an EC50 in assay [5] of 0.51 nM.

B8: 5F8-6D6 (antibody, V domains shown)
VH: EVQLVESGGGLVQPGGSLRLSCAASGFDFSDTAMSWVRQAPGKERELVAIITSGGSVDYVDSVKGRFTISRDNSKNTLYLQMNSLRAEDTAVYYCRARRTTIYWGQGTQVTVSS
B8: the EC50 in assay [5] was 0.52 nM. This EC50 and that of the molecule before are within 1.5-fold of each other.

B9: 5F8-3A3 (antibody, V domains shown)
VH: EVQLVESGGGLVQPGGSLRLSCAASGFDFSDTHMSWVRQAPGKERELVAIITGGGSTDYVDSVKGRFTISRDNSKNTLYLQMNSLRAEDTAVYYCLARRTTIYWGQGTQVTVSS
On to B9, for which, in assay [5], the EC50 is 0.73 nM.

B10: 5F8-4B12 (antibody, V domains shown)
VH: EVQLVESGGGLVQPGGSLRLSCAASGFDFPDTHMSWVRQAPGKERELVAIITSGGFTDYVDSVKGRFTISRDNSKNTLYLQMNSLRAEDTAVYYCRARRTTIYWGQGTQVTVSS
B10: the EC50 in assay [5] was determined as 0.63 nM.

B11: 3H1-2A2 (antibody, V domains shown)
VH: QVQLVESGGGVVQPGGSLRLSCAASGIDFSDTHMHWVRQAPGKQRELVAIITSGGFTDYVDSVKGRFTISRDNSKNTLYLQMNSLRAEDTAVYYCNARRSTIYWGQGTQVTVSS
B11: the EC50 in assay [3] was determined as 0.31 nM; in assay [4], 1.42 nM.

B12: 3H1-3B9 (antibody, V domains shown)
VH: QVQLVESGGGVVQPGGSLRLSCAASGIDFSDTHMHWVRQAPGKQRELVAIITSGGFTDYVDSVKGRFTISRDNSKNTLYLQMNSLRAEDTAVYYCNARTSTIYWGQGTQVTVSS
For the molecule B12, the EC50 stood at 0.3 nM in assay [3] and 0.97 nM in assay [4].

B13: 5F8-8E3 (antibody, V domains shown)
VH: EVQLVESGGGLVQPGGSLRLSCAASGFDFSDTHMSWVRQAPGKERELVAIITSGGSTDYVDSVKGRFTISRDNSKNTLYLQMNSLRAEDTAVYYCNARLTTIYWGQGTQVTVSS
Regarding B13, the EC50 in assay [5] came out at 0.57 nM.

B14: 3H1-2F4 (antibody, V domains shown)
VH: QVQLVESGGGVVQPGGSLRLSCAASGIDFSDLHMHWVRQAPGKQRELVAIITSGGSTDYVDSVKGRFTISRDNSKNTLYLQMNSLRAEDTAVYYCNARSSTIYWGQGTQVTVSS
With B14, the EC50 in assay [3] amounted to 0.65 nM; in assay [4], 1 nM.

B15: 3H1-2G3 (antibody, V domains shown)
VH: QVQLVESGGGVVQPGGSLRLSCAASGIDFSDTHMHWVRQAPGKQRELVAIITSSGSTDYVDSVKGRFTISRDNSKNTLYLQMNSLRAEDTAVYYCNARRSTILWGQGTQVTVSS
In the case of B15, the 50% effective concentration (EC50) is 0.31 nM in assay [3] and 1.57 nM in assay [4].

B16: 3H1-6D2 (antibody, V domains shown)
VH: QVQLVESGGGVVQPGGSLRLSCAASGIDFNDTHMHWVRQAPGKQRELVAIITSRGSTDYVDSVKGRFTISRDNSKNTLYLQMNSLRAEDTAVYYCNARRSTLYWGQGTQVTVSS
B16: the EC50 in assay [3] was found to be 0.51 nM; in assay [4], 1.29 nM.

B17: 4D2-hv2-NT (antibody, V domains shown)
VH: QVQLVESGGGLVKPGGSLRLSCAASGFSASDVVMAWYRQAPGKQREFVSNLGASSTTRYADSVKGRFTISRDNAKNSLYLQMNSLRAEDTAVYYCNALVWTGSSYNNWGQGTQVTVSS
As to B17, the half-maximal effective concentration (EC50) in assay [1] stood at 0.099 nM; in assay [2], 0.203 nM.

B18: 4E2-hv3-NT (antibody, V domains shown)
VH: EVQLVESGGGLVKPGGSLRLSCAASGFSAGDVVMAWYRQAPGKQREFVSNIAASSTTYYADSVKGRFTISRDNAKNSLYLQMNSLRAEDTAVYYCNALVWTGSSYNNWGQGTQVTVSS
B18: the EC50 in assay [1] amounted to 0.055 nM; in assay [2] it was 0.167 nM.

B19: 4D2-hv4-NT (antibody, V domains shown)
VH: QVQLVESGGGLVKPGGSLRLSCAASGFSASDVVMAWYRQAPGKQREFVSNLGASSTTNYADSVKGRFTISRDNAKNSLYLQMNSLRAEDTAVYYCNALVWTGSSYNNWGQGTQVTVSS
As to B19, the EC50 in assay [1] was 0.112 nM; in assay [2], 0.171 nM.

B20: 4D2-hv3-NT (antibody, V domains shown)
VH: QVQLVESGGGLVKPGGSLRLSCAASGFSASDVVMAWYRQAPGKQREFVSNLGASSTTYYADSVKGRFTISRDNAKNSLYLQMNSLRAEDTAVYYCNALVWTGSSYNNWGQGTQVTVSS
Consider B20, for which the concentration giving a half-maximal response (EC50) in assay [1] amounted to 0.271 nM; in assay [2] it was 0.598 nM.

B21: R3-2A11 (antibody, V domains shown)
VH: QVQLVESGGDLVQPGGSLRLSCAASGIDFSDTHMGWYRQAPGKQRELVALITSGGFTDYPDSVKGRFTISRDNAKNTMYLQMNTLKLEDTAVYYCNARRTTIYWGQGTQVTVSS
B21 registered an EC50 in assay [6] of 1.16 nM.

B22: R2-1G4 (antibody, V domains shown)
VH: QVQLVESGGGLVQPGGSLRLSCAASGIDFSDTHMGWYRQAPGKERELVALITSGGFTDYADSVKGRFTISRDNAKNTMYLQMNTLKFEDTAVYYCNARRTTIYWGQGTQVTVSS
As to B22, in assay [6], the concentration giving a half-maximal response (EC50) is 0.42 nM.

B23: R2-3A5 (antibody, V domains shown)
VH: EVQLVESGGGLVQPGGSLRLSCAASGIDFSDTHMGWYRQAPGKQRELVALITSGGFTDYADSVKGRFTISRDNAKNTMYLQMNTLKLEDTAVYYCNARRTTIYWGQGTQVTVSS
In assay [6], B23 showed an EC50 of 0.6 nM.

B24: R1-1C3 (antibody, V domains shown)
VH: EVQLVQSGGGLVQPGGSLRLSCAASGIFFSDTHMGWYRQAPGKERELVAIITSGGSTDYVDSVKGRFTISRDNAKNTVYLQMNTLKFEDTAVYYCNARRTTIYWGQGTQVTVSS
With B24, a half-maximal effect in assay [6] (EC50) was put at 1.69 nM.

B25: R2-1A3 (antibody, V domains shown)
VH: EVQLVESGGGLVQPGGSLRLSCVASGFDFSDTHMGWYRQAPGKQRELVALITSGAFTDYADSVKGRFTISRDNAKNTVYLQMNTLKFEDTAVYYCNARRTTIYWGQGTQVTVSS
In turn, B25 yielded an EC50 in assay [6] of 0.88 nM. Compared with the last molecule, the EC50 is about 1.9-fold lower.

B26: R2-6D2 (antibody, V domains shown)
VH: QVQLVESGGGLVQPGGSLRLSCAASGIDFSDTHMGWYRQAPGKERELVALITSGGFTDYADSVKGRFTISRDNAKNTMYLQMNTLKFEDTAVYYCNARKTTIYWGQGTQVTVSS
B26 came in with an EC50 in assay [6] of 0.93 nM.

B27: R2-1G10 (antibody, V domains shown)
VH: QVQLVESGGGLVQPGGSLRLSCAASGIFFSDTHMGWYRQAPGKERELVAIITSGGSTDYVDSVKGRFTISRDNAKNTVYLQMNSLKFEDTAVYYCNARRTTIYWGQGTQVTVSS
In assay [6], B27 returned an EC50 of 0.63 nM.

B28: R2-6A10 (antibody, V domains shown)
VH: QVQLVESGGGLVQPGGSLRLSCAASGIDFSDTHMGWYRQAPGKERELVALITSGGFTDYADSVKGRFTISRDNAKNTMYLQMNTLKFEDTAVYYCNARRSTIYWGQGTQVTVSS
In assay [6], B28 had an EC50 of 0.54 nM.

B29: R2-4H8 (antibody, V domains shown)
VH: EVQLVESGGGLVQPGGSLRLSCGASGIFFSGVHMGWYRQAPGKERELVALITDSGSADYVDSVKGRFTISRDNAKNTVYLQMNSLKFEDTAVYYCNARTTTIYWGQGTQVTVSS
In assay [6], B29 came in with a half-maximal effective concentration (EC50) of 0.87 nM.
